Source: patent EP1706427B1 (Crucell Holland B.V., dated 2011)
Changes are numbered by the printed parent chain.

T1: murine CD1d (mouse, UniProt P11609 22-336)
T1 construct: whole, on cells; also called mouse thymocytes
T1 sequence (looked up): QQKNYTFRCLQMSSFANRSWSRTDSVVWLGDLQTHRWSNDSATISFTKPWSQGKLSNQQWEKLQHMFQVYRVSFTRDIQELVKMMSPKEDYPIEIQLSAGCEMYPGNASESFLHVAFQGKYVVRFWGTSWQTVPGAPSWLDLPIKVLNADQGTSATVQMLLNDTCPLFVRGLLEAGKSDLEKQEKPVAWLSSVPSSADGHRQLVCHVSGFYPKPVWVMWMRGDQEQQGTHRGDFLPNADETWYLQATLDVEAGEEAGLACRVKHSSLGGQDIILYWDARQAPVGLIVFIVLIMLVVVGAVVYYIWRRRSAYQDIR

B1: human anti-human CD1a monoclonal antibody CR2113 (antibody, human IgG1, kappa, V domains shown)
VH: QVQLQESGAGLLKPSETLSLTCAVYGGSFSGYYWSWIRQPPGKGLEWIGYIYYSGSTNYNPSLKSRVTISVDTSKNQFSLKLSSVTAADTAVYYCAKAPYMMYFDSWGQGTLVTVSS
VL: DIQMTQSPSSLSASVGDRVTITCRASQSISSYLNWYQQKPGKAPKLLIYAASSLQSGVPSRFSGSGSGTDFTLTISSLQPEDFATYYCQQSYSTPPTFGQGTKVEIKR
notes: Human IgG1 kappa made in 293T cells, purified over protein A and size exclusion; Used unlabelled and biotinylated; also called 02-113
B2: human anti-human CD1a monoclonal antibody CR2114 (antibody, human IgG1, kappa, V domains shown)
VH: EVQLVESGGGLVQPGGSLRLSCAASGFTFSSYSMNWVRQAPGKGLEWVSYISSSSSTIYYADSVKGRFTISRDNAKNSLYLQMNSLRDEDTAVYYCAKETWWQSFDYWGQGTLVTVSS
VL: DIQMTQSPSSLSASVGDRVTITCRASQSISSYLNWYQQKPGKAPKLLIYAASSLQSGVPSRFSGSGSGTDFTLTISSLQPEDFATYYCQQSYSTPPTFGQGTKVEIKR
notes: Human IgG1 kappa made in 293T cells; Used unlabelled and biotinylated; also called 02-114
B3: human anti-human CD1a monoclonal antibody CR2117 (antibody, human IgG1, kappa, V domains shown)
VH: EVQLVESGGGLVHPGGSLRLSCAGSGFTFSSYAMHWVRQAPGKGLEWVSAIGTGGGTYYADSVKGRFTISRDNAKNSLYLQMNSLRAEDTAVYYCARSTPWFSFDYWGQGTLVTVSS
VL: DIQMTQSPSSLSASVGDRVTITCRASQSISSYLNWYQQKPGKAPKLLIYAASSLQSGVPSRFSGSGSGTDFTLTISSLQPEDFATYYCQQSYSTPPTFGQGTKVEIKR
notes: Human IgG1 kappa made in 293T cells; Used unlabelled and biotinylated; also called 02-117
B4: human anti-human CD1a monoclonal antibody CR2118 (antibody, human IgG1, kappa, V domains shown)
VH: B3 VH with G52S, T99A, P100W, F102L, Y106S
VL: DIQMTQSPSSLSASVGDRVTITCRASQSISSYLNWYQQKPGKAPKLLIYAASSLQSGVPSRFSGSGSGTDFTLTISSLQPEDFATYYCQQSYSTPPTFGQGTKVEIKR
notes: Human IgG1 kappa made in 293T cells; Used unlabelled and biotinylated; also called 02-118

The binders below were run against T1, murine CD1d (assay: flow cytometry on mouse thymocytes, Kolmogorov-Smirnov D-value).

Row | Binder | D-value
1 | B1 | 0
2 | B2 | 0
3 | B3 | 0
4 | B4 | 0

Each binder was assayed against T2, murine CD1a (mouse) in the same assay as above.
T2 construct: whole, on cells; no mouse CD1a entry is known to me; also called mouse thymocytes

Row | Binder | D-value
5 | B1 | 0
6 | B2 | 0
7 | B3 | 0
8 | B4 | 0
